Three substances from patent US20230265171A1 can be followed below.

Where two headings read alike, the source gives them in different places.

Assay [1] addresses SARS-CoV-2 spike receptor binding domain (RBD) (SARS-CoV-2) (UniProt P0DTC2). Description: ELISA, coated antigen. (ELISA stands for enzyme-linked immunosorbent assay.)
In assay [2] the target is SARS-CoV-2 spike glycoprotein S1 region (SARS-CoV-2) (UniProt P0DTC2). Description: ELISA, coated antigen.
Assay [3] deals with Dengue serotype 1 envelope antigens on pseudotype virus (Dengue virus serotype 1). Kind of assay: cell-based or functional assay.
The target of assay [4] is SARS-CoV-2 spike receptor binding domain (RBD) (SARS-CoV-2) (UniProt P0DTC2). Description: ELISA, coated antigen. The source holds these as a separate data set.
The target of assay [5] is SARS-CoV-2 spike glycoprotein S1 region (SARS-CoV-2) (UniProt P0DTC2). Kind of assay: ELISA, coated antigen. This is another data set of the same source.
In a further assay the target is SARS CoV RBD (SARS-CoV) (UniProt P59594). Kind of assay: ELISA, antigen coated at 2 µg/mL.
The target of another assay is MERS CoV S1 (MERS CoV) (UniProt K9N5Q8). Kind of assay: ELISA, antigen coated at 2 µg/mL.
The target of another assay is HCoV-NL63 S1 (HCoV-NL63) (UniProt Q6Q1S2). Description: ELISA, antigen coated at 2 µg/mL.
The next assay addresses HCoV-229E S1 (HCoV-229E) (UniProt P15423). Description: ELISA, antigen coated at 2 µg/mL.
Assay [6] addresses SARS-CoV-2 spike on GFP reporter pseudotype virus (SARS-CoV-2) (UniProt P0DTC2). Kind of assay: cell-based or functional assay.
Assay [7] deals with SARS-CoV-2 spike receptor binding domain (RBD) (SARS-CoV-2) (UniProt P0DTC2). Description: RBD:ACE2-His blocking ELISA, competitor ACE2-His.

Broadly, the EC50 is the concentration giving half of the maximal effect. A higher EC50 goes with a less potent agent. On to IVIG (Gamunex), for which the EC50 was 1270 µg/mL in assay [1]; 1410 µg/mL in assay [2]; 1250 µg/mL in assay [4]; 1380 µg/mL in assay [5]; 1280 µg/mL with SARS CoV RBD (SARS-CoV); 1330 µg/mL with MERS CoV S1 (MERS CoV). Moreover, the values for the EC50 in the assay with HCoV-NL63 S1 (HCoV-NL63) and with HCoV-229E S1 (HCoV-229E) were 140 µg/mL and 96 µg/mL, respectively. The peak OD signal is 2.26 OD in assay [1] and 1.99 OD in [2]. Moreover, in assay [3], the Neutralization IC50 was determined as 12.2 µg/mL.

SARS CoV mAb [CR3022] (antibody) had a CoV-2 pseudotype neutralization IC50 in assay [6] of 0.1 mg/mL. For the same substance, the results for the EC50 in assay [4] and in [5] were 0.088 µg/mL and 0.078 µg/mL, respectively.

One may read the IC50 as the concentration that gives 50% inhibition. A low value points to greater potency. With SARS CoV-2 mAb [SAD-S35] (antibody), in [6], the CoV-2 pseudotype neutralization IC50 is 0.00026 mg/mL. Besides, the results for the 50% effective concentration (EC50) in [4] and in assay [5] were 0.057 µg/mL and 0.058 µg/mL, respectively. This substance registered an IC50 in [7] of 1.1 µg/mL.
